These results are taken from patent US20250049896A1 (Regeneron, published 2025).

The target of this test is T1, Hmm-hTFRC (REGN2431), monomeric human transferrin receptor ectodomain with N-terminal hexahistidine-myc-myc … (human, UniProt P02786 89-760).
T1 construct: also called hmm.hTfR(C89-F763); His-myc-myc-hTFRC ecto
As to the kind of experiment: blocking ELISA, supernatant; Hmm-hTFRC binding to immobilized human holo-Tf. Here is the method:
In the blocking assay, the anti-human Transferrin goat IgG polyclonal antibody (anti-hTf pAb) was passively absorbed at a concentration of 2 micrograms/mL in PBS on a 96-well microtiter plate overnight at 4° C. […] To the same plate, human holo-Tf was then added at a concentration of 1 micrograms/mL in PBS+0.5% BSA for 2 hours at room temperature. […] After a 1-hour incubation, the mixtures were transferred to the human holo-Tf microtiter plates. […] The plates were developed using TMB substrate solution according to the manufacturer's recommended procedure and absorbance at 450 nm was measured on a Victor™ Multilabel Plate Reader.
The ability of the anti-TfR antibody to block human TFRC binding to human holo-Tf was evaluated using an ELISA-based blocking assay.
For orientation: An ELISA detects its analyte on a solid surface through an enzyme-linked reagent.

Substitutions are numbered along the chain they refer to.

T1 sequence (P02786 other isoform, or with tags, fused parts or gaps): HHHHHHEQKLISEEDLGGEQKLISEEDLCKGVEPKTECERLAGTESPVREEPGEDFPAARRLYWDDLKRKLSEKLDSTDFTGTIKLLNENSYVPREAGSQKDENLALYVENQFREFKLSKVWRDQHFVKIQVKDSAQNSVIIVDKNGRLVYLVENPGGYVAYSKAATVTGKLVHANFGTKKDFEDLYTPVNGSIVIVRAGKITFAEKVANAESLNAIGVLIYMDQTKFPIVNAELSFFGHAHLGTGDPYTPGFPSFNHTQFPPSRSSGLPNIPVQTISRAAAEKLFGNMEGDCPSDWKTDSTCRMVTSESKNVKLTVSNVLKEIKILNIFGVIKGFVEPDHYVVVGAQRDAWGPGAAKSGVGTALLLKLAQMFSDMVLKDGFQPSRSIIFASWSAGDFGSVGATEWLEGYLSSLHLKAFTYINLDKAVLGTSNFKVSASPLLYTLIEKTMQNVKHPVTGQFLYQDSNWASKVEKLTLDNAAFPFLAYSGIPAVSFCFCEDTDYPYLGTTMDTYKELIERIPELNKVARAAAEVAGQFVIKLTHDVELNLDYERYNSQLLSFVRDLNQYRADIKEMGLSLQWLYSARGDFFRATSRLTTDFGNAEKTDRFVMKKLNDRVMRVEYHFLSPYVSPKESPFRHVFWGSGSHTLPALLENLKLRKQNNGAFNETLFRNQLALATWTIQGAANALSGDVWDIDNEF

B1: 12847B Fab (Fab, V domains shown)
VH: EVQLVESGGGLVQPGRSLRLSCAASGFTFDDYAMNWVRQAPGKGLEWVSGISWSSGSMDYADSVKGRFTISRDNAKNSLYLQMNSLRTEDTALYYCAKAREVGDYYGMDVWGQGTTVTVSS
VL: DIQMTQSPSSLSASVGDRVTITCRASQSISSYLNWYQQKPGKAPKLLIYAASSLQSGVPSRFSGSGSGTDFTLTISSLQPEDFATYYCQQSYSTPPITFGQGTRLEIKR
notes: CHO supernatant
Turning to B1, the “% Blocking” value worked out at 3%.

B2: 69263 scFv (VH-VK) (scFv)
chain: EVQLVESGGGLVQPGRSLRLSCAVSGFTFDDYAMHWVRQAPGKGLEWVSGISWNSGTRGYADSVKGRFTISRDNAKNSLYLQMNSLRGEDTALYYCVKDITISPNYYGMDVWGQGTTVTVSSDIQMTQSPSSLSASVGDRVTITCRASQDISHYSAWYQQKPGKLPNLLIYAASTLQSGVPSRFSGSGSGTDFSLTTSSLQPEDVATYYCQKYNSVPLTFGGGTKVEIK
For the molecule B2, the “% Blocking” value was 14%.

B3: 69307 scFv (VK-VH) (scFv)
scFv: DIQMTQSPSSVSASVGDRVTITCRASQGISSWLAWYQQKPGKAPKLLIYAASSLQSGVPSRFSGSGSGTDFTLTISSLQPEDFATYYCQKADSLPYAFGQGTKLEIKGGGGSGGGGSGGGGSEVQLVESGGGLVQPGGSLRLSCTASGFTFSNYWMTWVRQAPGKGLEWVANIKEDGSEKEYVDSVKGRFTISRDNAKNSLYLQMNSLRGEDTAVYYCARDGEQLVDYYYYYVMDVWGQGTTVTVSS
notes: CHO supernatant; Vk-3xG4S-Vh
Take B3: the “% Blocking” value was 12%.

B4: 69329 scFv (VK-VH) (scFv)
scFv: B3 scFv with D92N, L94F, A97T, T145A, E181D
notes: CHO supernatant; Vk-3xG4S-Vh
With B4, the “% Blocking” value worked out at 19%.

B5: 31874B scFv (VH-VK) (scFv)
chain: EVQLVESGGGLVQPGGSLRLSCAASGFAFSSYAMTWVRQAPGKGLEWVSVISGTGGSTYYADSVKGRFTISRDNSKNTLYLQMNSLRAEDTAVYYCAKGGAARRMEYFQYWGQGTLVTVSSDIQMTQSPSSLSASVGDRVTITCRASQGISNYLAWYQQKPGKVPNLLIYAASTLQSGVPSRFSGSGSGTDFTLTISSLQPEDVATYYCQKYNSAPLTFGGGTKVEIK
Regarding B5, the “% Blocking” value is 14%.

B6: 69261 Fab (Fab, V domains shown)
VH: QVQLVESGGGLVKPGGSLRLSCAASGFTFSVYYMNWIRQAPGKGLEWVSYISSSGSTIYYADSVKGRFTISRDNAKNSLYLQMNSLRAEDTAVYYCGREGYSGTYSYYGMDVWGQGTTVTVSS
VL: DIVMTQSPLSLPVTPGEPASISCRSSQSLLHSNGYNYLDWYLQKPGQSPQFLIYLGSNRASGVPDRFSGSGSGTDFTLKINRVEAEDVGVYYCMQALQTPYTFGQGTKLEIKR
notes: CHO supernatant
In the case of B6, the “% Blocking” value amounted to 11%.

B7: 69305 Fab (Fab, V domains shown)
VH: QVQLVESGGGVVQPGRSLRLSCAASGFTFSSYGMHWVRQAPGKGLEWVAVIWYDGSNKYYADSVKGRFTISRDISKNTLYLQMNSLRAEDTAVYYCAGQLDLFFDYWGQGTLVTVSS
VL: DIQMTQSPSSLSASVGDRVTITCRASQSIDRYLNWYRQKPGKAPKLLIYTTSSLQSGVPSRFSGSGSGTDFTLTLSSLQPEDFATYYCQQSYSPPLTFGGGTKVEIKR
notes: CHO supernatant
Consider B7, for which the “% Blocking” value amounted to 3%.

B8: 69326 scFv (VK-VH) (scFv)
scFv: EIVMTQSPATLSVSPGERATLSCRASQSVSSNFAWYQQKPGQAPRLLIYSASSRATGIPVRFSGSGSGTEFTLTISSLQSEDFAVYYCQQYNIWPRTFGQGTKVEIKGGGGSGGGGSGGGGSEVQLVESGGGLVQPGGSLRLSCAVSGFIFSSYEMNWVRQAPGKGLEWVSYISSSGSTIFYADSVKGRFTISRDNAKNSLYLQMNSLRAEDTAVYYCVSGVVLFDVWGQGTMVTVSS
notes: CHO supernatant; Vk-3xG4S-Vh
For the molecule B8, the “% Blocking” value was found to be 12%.

B9: 69323 Fab (Fab, V domains shown)
VH: EVQLVESGGGLVQPGRSLRLSCAASGFTFDDYAMHWVRQAPGKGLEWVSGISWNSGYIGYADSVKGRFTISRDNAENSLHLQMNSLRAEDTALYYCARGGSTLVRGVKGGYYGMDVWGQGTTVTVSS
VL: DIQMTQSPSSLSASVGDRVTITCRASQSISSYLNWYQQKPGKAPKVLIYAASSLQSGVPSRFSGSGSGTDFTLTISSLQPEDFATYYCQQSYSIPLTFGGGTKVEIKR
notes: CHO supernatant
In the case of B9, the “% Blocking” value turned out to be 12%.

B10: 69263 scFv (VK-VH) (scFv)
scFv: DIQMTQSPSSLSASVGDRVTITCRASQDISHYSAWYQQKPGKLPNLLIYAASTLQSGVPSRFSGSGSGTDFSLTTSSLQPEDVATYYCQKYNSVPLTFGGGTKVEIKGGGGSGGGGSGGGGSEVQLVESGGGLVQPGRSLRLSCAVSGFTFDDYAMHWVRQAPGKGLEWVSGISWNSGTRGYADSVKGRFTISRDNAKNSLYLQMNSLRGEDTALYYCVKDITISPNYYGMDVWGQGTTVTVSS
notes: CHO supernatant; Vk-3xG4S-Vh
As to B10, the “% Blocking” value amounted to 4%.

B11: 31863B scFv (VH-VK) (scFv)
chain: EVQLVESGGGLVQPGGSLRLSCAASGFTFNSYAMTWVRQAPGKGLEWVSFIGGSTGNTYYAGSVKGRFTISSDNSKKTLYLQMNSLRAEDTAVYYCAKGGAARRMEYFQHWGQGTLVTVSSDIQMTQSPSSLSASIGDRVTITCRASQGISNYLAWYQQKPGKVPKLLIYAASTLQSGVPSRFSGSGSGTDFTLTISSLQPEDVATYYCQNHNSVPLTFGGGTKVEIK
Turning to B11, the “% Blocking” value worked out at 13%.

B12: 31863B scFv (VK-VH) (scFv)
scFv: DIQMTQSPSSLSASIGDRVTITCRASQGISNYLAWYQQKPGKVPKLLIYAASTLQSGVPSRFSGSGSGTDFTLTISSLQPEDVATYYCQNHNSVPLTFGGGTKVEIKGGGGSGGGGSGGGGSEVQLVESGGGLVQPGGSLRLSCAASGFTFNSYAMTWVRQAPGKGLEWVSFIGGSTGNTYYAGSVKGRFTISSDNSKKTLYLQMNSLRAEDTAVYYCAKGGAARRMEYFQHWGQGTLVTVSS
notes: CHO supernatant; Vk-3xG4S-Vh
As to B12, the “% Blocking” value was 7%.

B13: 69305 scFv (VK-VH) (scFv)
scFv: DIQMTQSPSSLSASVGDRVTITCRASQSIDRYLNWYRQKPGKAPKLLIYTTSSLQSGVPSRFSGSGSGTDFTLTLSSLQPEDFATYYCQQSYSPPLTFGGGTKVEIKGGGGSGGGGSGGGGSQVQLVESGGGVVQPGRSLRLSCAASGFTFSSYGMHWVRQAPGKGLEWVAVIWYDGSNKYYADSVKGRFTISRDISKNTLYLQMNSLRAEDTAVYYCAGQLDLFFDYWGQGTLVTVSS
notes: CHO supernatant; Vk-3xG4S-Vh
Turning to B13, the “% Blocking” value was 5%.

B14: 12848B Fab (Fab, V domains shown)
VH: EVQLVESGGGLVQPGRSLTLSCAASGFTFDNFGMHWVRQGPGKGLEWVSGLTWNSGVIGYADSVKGRFTISRDNAKNSLYLQMNSLRPEDTALYYCAKDIRNYGPFDYWGQGTLVTVSS
VL: not shown
notes: CHO supernatant
In the case of B14, the “% Blocking” value was determined as 13%.

B15: 31874B scFv (VK-VH) (scFv)
scFv: DIQMTQSPSSLSASVGDRVTITCRASQGISNYLAWYQQKPGKVPNLLIYAASTLQSGVPSRFSGSGSGTDFTLTISSLQPEDVATYYCQKYNSAPLTFGGGTKVEIKGGGGSGGGGSGGGGSEVQLVESGGGLVQPGGSLRLSCAASGFAFSSYAMTWVRQAPGKGLEWVSVISGTGGSTYYADSVKGRFTISRDNSKNTLYLQMNSLRAEDTAVYYCAKGGAARRMEYFQYWGQGTLVTVSS
notes: CHO supernatant; Vk-3xG4S-Vh
As to B15, the “% Blocking” value was -1%.

B16: 69326 Fab (Fab, V domains shown)
VH: EVQLVESGGGLVQPGGSLRLSCAVSGFIFSSYEMNWVRQAPGKGLEWVSYISSSGSTIFYADSVKGRFTISRDNAKNSLYLQMNSLRAEDTAVYYCVSGVVLFDVWGQGTMVTVSS
VL: EIVMTQSPATLSVSPGERATLSCRASQSVSSNFAWYQQKPGQAPRLLIYSASSRATGIPVRFSGSGSGTEFTLTISSLQSEDFAVYYCQQYNIWPRTFGQGTKVEIKR
notes: CHO supernatant
For B16, the “% Blocking” value was -2%.

B17: 69307 Fab (Fab, V domains shown)
VH: EVQLVESGGGLVQPGGSLRLSCTASGFTFSNYWMTWVRQAPGKGLEWVANIKEDGSEKEYVDSVKGRFTISRDNAKNSLYLQMNSLRGEDTAVYYCARDGEQLVDYYYYYVMDVWGQGTTVTVSS
VL: DIQMTQSPSSVSASVGDRVTITCRASQGISSWLAWYQQKPGKAPKLLIYAASSLQSGVPSRFSGSGSGTDFTLTISSLQPEDFATYYCQKADSLPYAFGQGTKLEIKR
notes: CHO supernatant
B17: the “% Blocking” value is 12%.

B18: 69329 Fab (Fab, V domains shown)
VH: B17 VH with T23A, E59D
VL: B17 VL with D92N, L94F, A97T
notes: CHO supernatant
Turning to B18, the “% Blocking” value stood at 8%.

B19: 69305 scFv (VH-VK) (scFv)
chain: QVQLVESGGGVVQPGRSLRLSCAASGFTFSSYGMHWVRQAPGKGLEWVAVIWYDGSNKYYADSVKGRFTISRDISKNTLYLQMNSLRAEDTAVYYCAGQLDLFFDYWGQGTLVTVSSDIQMTQSPSSLSASVGDRVTITCRASQSIDRYLNWYRQKPGKAPKLLIYTTSSLQSGVPSRFSGSGSGTDFTLTLSSLQPEDFATYYCQQSYSPPLTFGGGTKVEIK
Consider B19, for which the “% Blocking” value came to 3%.

B20: 31863B Fab (Fab, V domains shown)
VH: EVQLVESGGGLVQPGGSLRLSCAASGFTFNSYAMTWVRQAPGKGLEWVSFIGGSTGNTYYAGSVKGRFTISSDNSKKTLYLQMNSLRAEDTAVYYCAKGGAARRMEYFQHWGQGTLVTVSS
VL: DIQMTQSPSSLSASIGDRVTITCRASQGISNYLAWYQQKPGKVPKLLIYAASTLQSGVPSRFSGSGSGTDFTLTISSLQPEDVATYYCQNHNSVPLTFGGGTKVEIKR
notes: CHO supernatant
On to B20, for which the “% Blocking” value was determined as 24%.

B21: 69263 Fab (Fab, V domains shown)
VH: EVQLVESGGGLVQPGRSLRLSCAVSGFTFDDYAMHWVRQAPGKGLEWVSGISWNSGTRGYADSVKGRFTISRDNAKNSLYLQMNSLRGEDTALYYCVKDITISPNYYGMDVWGQGTTVTVSS
VL: B20 VL with I15V, G28D, N31H, L33S, V43L, K45N, T72S, I75T, N90K, H91Y
notes: CHO supernatant
For B21, the “% Blocking” value was determined as 14%.

B22: 31874B Fab (Fab, V domains shown)
VH: EVQLVESGGGLVQPGGSLRLSCAASGFAFSSYAMTWVRQAPGKGLEWVSVISGTGGSTYYADSVKGRFTISRDNSKNTLYLQMNSLRAEDTAVYYCAKGGAARRMEYFQYWGQGTLVTVSS
VL: B20 VL with I15V, K45N, N90K, H91Y, V94A
notes: CHO supernatant
B22: the “% Blocking” value came to 16%.
